B1: Mothers against decapentaplegic homolog 4 (Homo sapiens), Q13485 (parent)
chain: MDNMSITNTPTSNDACLSIVHSLMCHRQGGESETFAKRAIESLVKKLKEKKDELDSLITAITTNGAHPSKCVTIQRTLDGRLQVAGRKGFPHVIYARLWRWPDLHKNELKHVKYCQYAFDLKCDSVCVNPYHYERVVSPGIDLSGLTLQSNAPSSMMVKDEYVHDFEGQPSLSTEGHSIQTIQHPPSNRASTETYSTPALLAPSESNATSTANFPNIPVASTSQPASILGGSHSEGLLQIASGPQPGQQQNGFTGQPATYHHNSTTTWTGSRTAPYTPNLPHHQNGHLQHHPPMPPHPGHYWPVHNELAFQPPISNHPAPEYWCSIAYFEMDVQVGETFKVPSSCPIVTVDGYVDPSGGDRFCLGQLSNVHRTEAIERARLHIGKGVQLECKGEGDVWVRCLSDHAVFVQSYYLDREAGRAPGDAVHKIYPSAYIKVFDLRQCHRQMQQQAATAQAAAAAQAAAVAGNIPGPGSVGGIAPAISLSAAAGIGVDDLRRLCILRMSFVKGWGPDYPRQSIKETPCWIEIHLHRALQLLDEVLHTMPIADPQPLD
partner: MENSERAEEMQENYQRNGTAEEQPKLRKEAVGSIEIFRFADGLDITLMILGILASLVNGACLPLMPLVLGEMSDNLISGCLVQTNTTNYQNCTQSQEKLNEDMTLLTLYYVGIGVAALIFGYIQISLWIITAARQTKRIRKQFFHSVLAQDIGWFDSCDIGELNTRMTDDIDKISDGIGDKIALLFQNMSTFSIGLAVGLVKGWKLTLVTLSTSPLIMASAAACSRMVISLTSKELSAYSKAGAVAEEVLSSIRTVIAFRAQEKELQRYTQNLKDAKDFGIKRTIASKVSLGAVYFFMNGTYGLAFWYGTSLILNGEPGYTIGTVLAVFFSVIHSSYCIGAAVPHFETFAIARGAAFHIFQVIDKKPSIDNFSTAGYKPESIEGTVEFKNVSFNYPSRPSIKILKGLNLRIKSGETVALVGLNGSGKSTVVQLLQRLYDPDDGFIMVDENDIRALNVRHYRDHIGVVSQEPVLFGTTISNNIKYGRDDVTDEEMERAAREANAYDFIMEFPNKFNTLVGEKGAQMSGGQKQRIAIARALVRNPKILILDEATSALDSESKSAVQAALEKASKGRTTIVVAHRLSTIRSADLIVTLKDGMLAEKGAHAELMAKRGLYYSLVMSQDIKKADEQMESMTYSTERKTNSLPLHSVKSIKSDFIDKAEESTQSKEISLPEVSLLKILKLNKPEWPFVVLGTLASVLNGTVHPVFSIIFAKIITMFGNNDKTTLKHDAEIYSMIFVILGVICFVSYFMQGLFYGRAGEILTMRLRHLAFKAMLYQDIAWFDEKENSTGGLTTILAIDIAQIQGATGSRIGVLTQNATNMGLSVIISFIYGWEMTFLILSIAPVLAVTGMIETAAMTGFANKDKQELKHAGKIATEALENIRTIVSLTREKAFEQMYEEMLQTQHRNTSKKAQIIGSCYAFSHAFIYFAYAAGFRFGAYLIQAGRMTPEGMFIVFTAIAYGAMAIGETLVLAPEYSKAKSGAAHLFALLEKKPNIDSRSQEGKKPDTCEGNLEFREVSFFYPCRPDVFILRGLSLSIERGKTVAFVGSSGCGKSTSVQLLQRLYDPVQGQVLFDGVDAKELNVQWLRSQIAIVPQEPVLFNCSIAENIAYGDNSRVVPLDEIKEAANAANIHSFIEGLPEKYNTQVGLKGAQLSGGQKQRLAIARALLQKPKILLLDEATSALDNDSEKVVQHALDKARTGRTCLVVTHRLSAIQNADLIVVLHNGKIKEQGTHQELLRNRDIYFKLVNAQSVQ
B2: Mothers against decapentaplegic homolog 4 (Homo sapiens), Q13485 (parent)
chain: B1 chain
partner: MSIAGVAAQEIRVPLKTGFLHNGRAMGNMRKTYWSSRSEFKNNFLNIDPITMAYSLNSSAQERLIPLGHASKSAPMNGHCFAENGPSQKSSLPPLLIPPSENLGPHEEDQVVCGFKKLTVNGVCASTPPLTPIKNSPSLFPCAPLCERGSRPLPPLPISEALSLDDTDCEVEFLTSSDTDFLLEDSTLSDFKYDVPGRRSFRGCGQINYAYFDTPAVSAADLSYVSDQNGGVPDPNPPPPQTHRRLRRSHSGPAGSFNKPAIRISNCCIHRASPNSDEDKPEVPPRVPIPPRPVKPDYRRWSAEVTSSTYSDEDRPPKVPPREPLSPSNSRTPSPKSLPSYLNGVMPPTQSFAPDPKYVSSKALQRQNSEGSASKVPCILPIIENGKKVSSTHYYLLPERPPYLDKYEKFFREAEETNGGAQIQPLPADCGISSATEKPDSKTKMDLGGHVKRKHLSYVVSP
B3: Mothers against decapentaplegic homolog 4 (Homo sapiens), Q13485 (parent)
chain: B1 chain
partner: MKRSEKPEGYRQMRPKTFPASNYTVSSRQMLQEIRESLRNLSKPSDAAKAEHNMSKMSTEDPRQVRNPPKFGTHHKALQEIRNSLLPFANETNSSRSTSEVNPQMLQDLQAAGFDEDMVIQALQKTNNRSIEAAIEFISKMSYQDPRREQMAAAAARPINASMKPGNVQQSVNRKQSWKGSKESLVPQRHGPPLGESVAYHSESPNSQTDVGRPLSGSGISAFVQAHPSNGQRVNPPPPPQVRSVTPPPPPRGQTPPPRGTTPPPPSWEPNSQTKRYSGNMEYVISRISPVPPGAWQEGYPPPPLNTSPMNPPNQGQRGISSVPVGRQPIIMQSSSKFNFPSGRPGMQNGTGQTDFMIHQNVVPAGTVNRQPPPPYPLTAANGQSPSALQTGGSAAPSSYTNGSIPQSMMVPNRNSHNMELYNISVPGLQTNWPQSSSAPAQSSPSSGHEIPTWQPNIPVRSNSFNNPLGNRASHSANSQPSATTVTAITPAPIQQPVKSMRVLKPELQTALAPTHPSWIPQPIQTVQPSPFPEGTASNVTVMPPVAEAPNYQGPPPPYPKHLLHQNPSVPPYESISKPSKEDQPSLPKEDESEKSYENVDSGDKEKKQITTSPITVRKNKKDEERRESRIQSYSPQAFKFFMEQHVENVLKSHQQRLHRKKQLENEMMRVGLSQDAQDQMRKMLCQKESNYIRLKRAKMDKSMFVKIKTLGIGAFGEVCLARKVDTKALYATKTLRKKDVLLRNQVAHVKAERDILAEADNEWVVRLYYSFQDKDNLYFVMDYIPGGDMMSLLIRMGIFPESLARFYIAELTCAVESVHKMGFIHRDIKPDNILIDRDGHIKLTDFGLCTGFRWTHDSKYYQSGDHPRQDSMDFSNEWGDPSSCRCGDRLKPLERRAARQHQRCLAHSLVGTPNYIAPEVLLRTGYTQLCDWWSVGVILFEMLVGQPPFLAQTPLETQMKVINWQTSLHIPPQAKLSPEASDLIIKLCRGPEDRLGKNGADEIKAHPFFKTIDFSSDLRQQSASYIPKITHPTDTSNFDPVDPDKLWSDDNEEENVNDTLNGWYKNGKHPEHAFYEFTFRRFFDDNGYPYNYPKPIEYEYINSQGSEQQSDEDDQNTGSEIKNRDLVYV
B4: Mothers against decapentaplegic homolog 4 (Homo sapiens), Q13485 (parent)
chain: B1 chain
partner: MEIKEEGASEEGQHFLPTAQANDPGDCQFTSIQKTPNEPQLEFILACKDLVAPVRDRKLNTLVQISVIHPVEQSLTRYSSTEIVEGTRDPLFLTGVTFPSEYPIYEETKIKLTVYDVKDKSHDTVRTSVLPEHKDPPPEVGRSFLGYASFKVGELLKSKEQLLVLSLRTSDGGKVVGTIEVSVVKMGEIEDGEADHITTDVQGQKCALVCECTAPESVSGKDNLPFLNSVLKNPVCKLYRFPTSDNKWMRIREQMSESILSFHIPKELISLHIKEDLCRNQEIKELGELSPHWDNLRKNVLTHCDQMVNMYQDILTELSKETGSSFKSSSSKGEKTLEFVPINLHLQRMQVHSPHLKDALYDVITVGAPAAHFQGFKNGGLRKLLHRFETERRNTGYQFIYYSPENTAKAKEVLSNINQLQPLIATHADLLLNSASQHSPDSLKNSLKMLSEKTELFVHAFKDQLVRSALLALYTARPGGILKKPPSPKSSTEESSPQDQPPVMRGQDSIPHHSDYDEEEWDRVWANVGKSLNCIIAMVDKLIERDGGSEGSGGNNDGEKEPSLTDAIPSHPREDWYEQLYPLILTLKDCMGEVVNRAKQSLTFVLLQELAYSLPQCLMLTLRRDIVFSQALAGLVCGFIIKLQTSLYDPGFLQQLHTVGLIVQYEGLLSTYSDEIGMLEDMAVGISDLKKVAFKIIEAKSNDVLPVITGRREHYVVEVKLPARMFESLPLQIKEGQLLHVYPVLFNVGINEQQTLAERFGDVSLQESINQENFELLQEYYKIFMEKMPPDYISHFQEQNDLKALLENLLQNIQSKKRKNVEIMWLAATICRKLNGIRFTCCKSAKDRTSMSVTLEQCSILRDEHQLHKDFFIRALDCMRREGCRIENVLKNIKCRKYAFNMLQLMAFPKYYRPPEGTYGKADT

Variants of: B1
Conditions: with abcb5_human ABCB5, Q2M3G0

Variant | effect of a mutation on the interaction
G386D | with no effect

Variants of: B1
Conditions: with abcb5_human ABCB5, Q2M3G0
Remark: another data set of the same source

Variant | effect of a mutation on the interaction
D351H | with no effect

Variants of: B2
Conditions: with errfi_human ERRFI1, Q9UJM3

Variant | effect of a mutation on the interaction
G386D | with no effect

Variants of: B2
Conditions: with errfi_human ERRFI1, Q9UJM3
Remark: another data set of the same source

Variant | effect of a mutation on the interaction
R361C | with no effect

Variants of: B2
Conditions: with errfi_human ERRFI1, Q9UJM3
Remark: another data set of the same source

Variant | effect of a mutation on the interaction
R361H | with no effect

Variants of: B2
Conditions: with errfi_human ERRFI1, Q9UJM3
Remark: another data set of the same source

Variant | effect of a mutation on the interaction
D351H | with no effect

Variants of: B3
Conditions: with lats1_human LATS1, O95835

Variant | effect of a mutation on the interaction
D351H | with no effect

Variants of: B3
Conditions: with lats1_human LATS1, O95835
Remark: another data set of the same source

Variant | effect of a mutation on the interaction
R361C | with no effect

Variants of: B3
Conditions: with lats1_human LATS1, O95835
Remark: another data set of the same source

Variant | effect of a mutation on the interaction
R361H | with no effect

Variants of: B3
Conditions: with lats1_human LATS1, O95835
Remark: another data set of the same source

Variant | effect of a mutation on the interaction
G386D | with no effect

Variants of: B3
Conditions: with lats1_human LATS1, O95835
Remark: another data set of the same source

Variant | effect of a mutation on the interaction
G386D | increasing interaction strength

Variants of: B4
Conditions: with inp4b_human INPP4B

Variant | effect of a mutation on the interaction
G386D | with no effect

Source: IntAct's records for PubMed 35512704
